Results as given in US20110250213A1 (JN BIOSCIENCES, published 2011).
Each block holds one molecule with its values, some of them ahead of it.

How the values were obtained:
human CD122 (human) = human CD122 (human) (UniProt P14784); assay: cell-based or functional assay
mouse CD122 = target: T1, mouse CD122 (mouse, UniProt P16297 27-240, limits assumed); assay: assay not specified
T1 sequence (looked up): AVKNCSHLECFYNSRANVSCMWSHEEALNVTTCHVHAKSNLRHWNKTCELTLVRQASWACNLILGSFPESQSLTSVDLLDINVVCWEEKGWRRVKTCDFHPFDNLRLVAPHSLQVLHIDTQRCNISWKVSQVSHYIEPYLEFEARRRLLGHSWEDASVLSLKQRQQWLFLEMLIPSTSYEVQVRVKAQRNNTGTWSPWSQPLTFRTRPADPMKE

Sequence of human CD122 (human) (P14784 27-551): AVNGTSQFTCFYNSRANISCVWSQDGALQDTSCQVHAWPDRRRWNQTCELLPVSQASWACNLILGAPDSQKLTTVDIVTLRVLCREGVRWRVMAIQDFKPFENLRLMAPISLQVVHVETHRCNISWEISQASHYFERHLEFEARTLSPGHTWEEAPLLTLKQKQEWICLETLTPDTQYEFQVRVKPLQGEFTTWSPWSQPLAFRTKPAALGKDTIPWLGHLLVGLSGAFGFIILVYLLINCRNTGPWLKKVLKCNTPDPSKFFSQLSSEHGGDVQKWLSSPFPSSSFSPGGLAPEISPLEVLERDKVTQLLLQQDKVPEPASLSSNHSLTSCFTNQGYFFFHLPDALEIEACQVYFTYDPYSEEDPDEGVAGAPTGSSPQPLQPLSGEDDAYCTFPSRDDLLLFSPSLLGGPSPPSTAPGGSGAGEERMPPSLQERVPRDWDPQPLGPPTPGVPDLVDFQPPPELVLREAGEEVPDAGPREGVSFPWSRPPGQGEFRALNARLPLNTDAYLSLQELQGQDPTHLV

antibody concentration required for 50% inhibition of proliferation mediated by trans-presentation of IL-15 to TF-1β cells (human CD122 (human)): 10 µg/mL
Molecule: HuMik-β1 (antibody)

binding result (mouse CD122): no binding
B1: ABC101 (antibody, mouse IgG2b, V domains shown)
VH: DVQLQESGPGLVKPSQTVSLTCTVTGYSITNDNHWWNWIRQVSGSKLEWMGYIDSSGSSDNNPSLKSQISITRDTSKNQLFLQLNSVTIEDIGTYYCARGGGRDYYGMDYWGQGTSVTVSS
VL: DIVLTQSPASLAVSLGQRATISCRASQSVSTSSYSYVHWYQQKPGQPPKLLIKYASNLESGVPARFSGSGSGTDFTLNIHPVEEEDTATYYCQHSWDIPFTFGGGTKLEIK
notes: Mouse IgG2b/kappa purified from hybridoma; also called mouse anti-human CD122 monoclonal antibody ABC101

binding result (mouse CD122): no binding
B2: ABC2 (antibody, mouse IgG1, V domains shown)
VH: EVKLVESGGGLVQPGGSLRLSCATSGFTFSDFYMEWVRQPPGKRLEWIAASRNKANDYTTEYSASVKGRFIVSRDTSQSILYLQMNALRAEDTAIYYCARSYYRYDGMDYWGQGTSVTVSS
VL: QVVLTQSPVIMSASPGEKVTMTCSAISSVSYMYWYQQKPGSSPRLLIYDTSNLVSGVPVRFSGSGSGTSYSLTISRMEAEDAATYYCQQWNTYPYTFGGGTKLEIK
notes: Mouse IgG1/kappa purified from hybridoma; also called mouse anti-human CD122 monoclonal antibody ABC2
